Test results reported in patent US20230203146A1 (Boehringer Ingelheim, published 2023).
Where two headings read alike, the source gives them in different places.

Assays:
[1] = molecular target: T1, FLAG-tagged cynomolgus Ang2 (cynomolgus, UniProt O15123 19-496 (human entry), limits assumed); experiment: competition ELISA: FLAG-cAng2 binding to coated cTie2-Fc
T1 construct: N-terminally FLAG-tagged, conditioned medium of HEK293T cells; also called cAng2; FLAG-cAng2
T1 chain: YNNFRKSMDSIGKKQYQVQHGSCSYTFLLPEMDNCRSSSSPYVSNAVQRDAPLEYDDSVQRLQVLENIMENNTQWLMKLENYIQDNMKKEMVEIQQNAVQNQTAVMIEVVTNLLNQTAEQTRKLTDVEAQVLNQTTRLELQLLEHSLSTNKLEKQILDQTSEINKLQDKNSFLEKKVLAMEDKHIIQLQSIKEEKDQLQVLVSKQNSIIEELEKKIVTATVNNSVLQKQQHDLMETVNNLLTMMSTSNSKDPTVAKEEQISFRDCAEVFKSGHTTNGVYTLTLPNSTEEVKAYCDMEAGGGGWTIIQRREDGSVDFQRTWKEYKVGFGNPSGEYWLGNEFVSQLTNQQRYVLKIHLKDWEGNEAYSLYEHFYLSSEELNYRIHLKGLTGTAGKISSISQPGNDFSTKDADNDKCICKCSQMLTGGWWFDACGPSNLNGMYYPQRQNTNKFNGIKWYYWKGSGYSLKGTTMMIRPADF
Description: (§1) In brief, 2 μg/mL of recombinant mouse Tie2-Fc or cyno Tie2-Fc is coated overnight at 4° C. in a 96-well MaxiSorp plate (Nunc, Wiesbaden, Germany). Coated wells are blocked with a 1% casein solution.

[2] = molecular target: T2, FLAG-tagged mouse Ang2 (mouse, UniProt O35608 19-496); experiment: competition ELISA: FLAG-mAng2 binding to coated mTie2-Fc
T2 construct: N-terminally FLAG-tagged, conditioned medium of HEK293T cells; also called mAng2; FLAG-mAng2
T2 sequence: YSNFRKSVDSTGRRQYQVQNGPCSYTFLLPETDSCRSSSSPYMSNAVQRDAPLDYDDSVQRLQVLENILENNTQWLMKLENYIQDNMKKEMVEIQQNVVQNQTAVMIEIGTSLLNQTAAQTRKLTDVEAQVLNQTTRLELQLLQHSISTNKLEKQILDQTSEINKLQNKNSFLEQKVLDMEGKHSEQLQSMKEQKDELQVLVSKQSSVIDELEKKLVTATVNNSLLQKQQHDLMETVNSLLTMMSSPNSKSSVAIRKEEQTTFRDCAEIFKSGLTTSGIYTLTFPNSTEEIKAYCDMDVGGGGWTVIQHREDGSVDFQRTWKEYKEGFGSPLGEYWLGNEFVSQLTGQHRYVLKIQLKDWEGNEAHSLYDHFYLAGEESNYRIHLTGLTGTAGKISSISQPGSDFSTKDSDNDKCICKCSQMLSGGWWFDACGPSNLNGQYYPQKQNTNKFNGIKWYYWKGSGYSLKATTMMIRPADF
Description: as §1

[3] = molecular target: T3, N-terminally FLAG-tagged mouse Ang2 (HEK293T conditioned medium) (mouse, UniProt O35608 19-496); experiment: competition ELISA, FLAG-mAng2 on coated mTie2-Fc
T3 construct: may be a nucleotide entry; also called mAng2; FLAG-mAng2
T3 sequence: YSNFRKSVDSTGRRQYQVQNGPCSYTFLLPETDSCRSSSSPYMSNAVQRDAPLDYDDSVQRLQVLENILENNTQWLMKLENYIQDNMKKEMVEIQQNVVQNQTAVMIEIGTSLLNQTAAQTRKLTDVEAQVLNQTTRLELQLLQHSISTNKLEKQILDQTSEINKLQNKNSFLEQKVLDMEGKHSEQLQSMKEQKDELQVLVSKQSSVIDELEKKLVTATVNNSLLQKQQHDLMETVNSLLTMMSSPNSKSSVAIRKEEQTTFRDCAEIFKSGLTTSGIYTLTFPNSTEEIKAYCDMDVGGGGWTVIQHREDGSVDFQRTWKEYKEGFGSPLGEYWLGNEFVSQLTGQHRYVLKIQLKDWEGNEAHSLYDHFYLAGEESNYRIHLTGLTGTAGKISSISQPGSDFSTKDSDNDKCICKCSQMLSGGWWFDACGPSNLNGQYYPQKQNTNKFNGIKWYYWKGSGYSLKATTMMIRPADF
Description: as §1

[4] = molecular target: T2, FLAG-tagged mouse Ang2; experiment: competition ELISA: FLAG-mAng2 binding to coated mTie2-Fc; remark: listed apart in the source
Description: as §1

B1: VHH 00044 (VHH, not shown: small tags and cut ends)
VHH: EVQLVESGGGLVQPGGSLRLSCAASGFALDYYAIGWFRQAPGKEREGVSCISSSDGITYYVDSVKGRFTISRDNSKNTVYLQMNSLRPEDTAVYYCATDSGGYIDYDCMGLGYDYWGQGTLVTVSS
- IC50 [1]: 0.13 nM
- IC50 [2]: 0.091 nM

B2: VHH 00046 (VHH, not shown: small tags and cut ends)
VHH: EVQLVESGGGLVQPGGSLRLSCAASGFALDYYAIGWFRQAPGKEREGVSCISSSGGITYYVDSVKGRFTISRDNSKNTVYLQMNSLRPEDTAVYYCATDSGGYIDYDCMGLGYDYWGQGTLVTVSS
- IC50 [1]: 0.16 nM
- IC50 [2]: 0.083 nM

B3: VHH 00045 (VHH, not shown: small tags and cut ends)
VHH: EVQLVESGGGLVQPGGSLRLSCAASGFALDYYAIGWFRQAPGKEREGVSCISSSDGITYYADSVKGRFTISRDNSKNTVYLQMNSLRPEDTAVYYCATDSGGYIDYDCMGLGYDYWGQGTLVTVSS
- IC50 [1]: 0.16 nM
- IC50 [2]: 0.11 nM

B4: VHH 1D01 (VHH, not shown: small tags and cut ends)
VHH: EVQLVESGGGLVQAGGSLRLSCAASGFTFDDYALGWFRQAAGKEREGVSCIRCSDGSTYYADSVKGRFTISSDNAKNTVYLQMNSLKPEDTAVYYCAASIVPRSKLEPYEYDAWGQGTQVTVSS
notes: Parental llama VHH; also called 001D01
- IC50 [1]: 9.1 nM
- IC50 [2]: 12.4 nM

B5: VHH 00049 (VHH, not shown: small tags and cut ends)
VHH: EVQLVESGGGLVQPGGSLRLSCAASGFTFDDYALGWFRQAAGKEREGVSCIRCSDGSTYYADSVKGRFTISSDNSKNTVYLQMNSLRPEDTAVYYCAASIVPRSKLEPYEYDAWGQGTLVTVSS
- IC50 [1]: 4.5 nM
- IC50 [2]: 20.3 nM

B6: VHH 00050 (VHH, not shown: small tags and cut ends)
VHH: EVQLVESGGGLVQPGGSLRLSCAASGFTFDDYALGWFRQAPGKEREGVSCIRCSDGSTYYADSVKGRFTISSDNSKNTVYLQMNSLRPEDTAVYYCAASIVPRSKLEPYEYDAWGQGTLVTVSS
- IC50 [1]: 4.8 nM
- IC50 [2]: 18.6 nM

B7: VHH 00925 (VHH, not shown: small tags and cut ends)
VHH: DVQLVESGGGLVQPGGSLRLSCAASGFTFDDYALGWFRQAPGKEREGVSCIRCSGGSTYYADSVKGRFTISSDNSKNTVYLQMNSLRPEDTAVYYCAASIVPRSKLEPYEYDAWGQGTLVTVSS
- IC50 [1]: 33 nM
- IC50 [2]: 28.4 nM

B8: VHH 00051 (VHH, not shown: small tags and cut ends)
VHH: EVQLVESGGGLVQPGGSLRLSCAASGFTFDDYALGWFRQAAGKEREGVSCIRCSGGSTYYADSVKGRFTISSDNSKNTVYLQMNSLRPEDTAVYYCAASIVPRSKLEPYEYDAWGQGTLVTVSS
- IC50 [1]: 15 nM
- IC50 [2]: 37.9 nM

B9: VHH 00040 (VHH, not shown: small tags and cut ends)
VHH: EVQLVESGGGLVQPGGSLRLSCAASGFTFDDYALGWFRQAPGKEREGVSCIRCSDGSTYYADSVKGRFTISRDNSKNTVYLQMNSLRPEDTAVYYCAASIVPRSKLEPYEYDAWGQGTLVTVSS
- IC50 [1]: 5.8 nM
- IC50 [2]: 29 nM

B10: VHH 00039 (VHH, not shown: small tags and cut ends)
VHH: EVQLVESGGGLVQPGGSLRLSCAASGFTFDDYALGWFRQAAGKEREGVSCIRCSDGSTYYADSVKGRFTISRDNSKNTVYLQMNSLRPEDTAVYYCAASIVPRSKLEPYEYDAWGQGTLVTVSS
- IC50 [1]: 6.4 nM
- IC50 [2]: 28.1 nM

B11: VHH 3A07 (VHH)
VHH: EVQLVESGGGLVQPGGSLRLSCAASGFTLDYDAIGWFRQAPGKEREGVSCITSSDGITYYADSVKGRFTISRDNAKNTVYLQMNSLKPEDTAVYYCATGNRRIYYSDYALACFPYEYDYWGQGTQVTVSS
notes: also called 003A07; not shown: C-terminal c-myc tag and His6 tag
- IC50 [3]: 99.3 nM

B12: VHH 00025 (VHH, not shown: small tags and cut ends)
VHH: EVQLVESGGGLVQAGGSLRLSCAASGFTLDDYAIGWFRQAPGKEREGVSTIRDSDGSTYYADSVKGRFTISSDNDKNTVYLQMNSLKPEDTAVYYCAAVPAGRLRFGEQWYPLYEYDAWGQGTLVTVSS
- IC50 [1]: 1.7 nM
- IC50 [4]: 4.9 nM

B13: VHH 00026 (VHH, not shown: small tags and cut ends)
VHH: EVQLVESGGGLVQAGGSLRLSCAASGFTLDDYAIGWFRQAPGKEREGVSAIRDSDGSTYYADSVKGRFTISSDNDKNTVYLQMNSLKPEDTAVYYCAAVPAGRLRFGEQWYPLYEYDAWGQGTLVTVSS
- IC50 [1]: 1.1 nM
- IC50 [4]: 2.6 nM

B14: VHH 00041 (VHH, not shown: small tags and cut ends)
VHH: EVQLVESGGGLVQPGGSLRLSCAASGFTLDDYAIGWFRQAPGKEREGVSSIRDNDGSTYYADSVKGRFTISSDNAKNTVYLQMNSLRPEDTAVYYCAAVPAGRLRFGEQWYPLYEYDAWGQGTLVTVSS
- IC50 [1]: 0.9 nM
- IC50 [4]: 1.7 nM

B15: VHH 00043 (VHH, not shown: small tags and cut ends)
VHH: EVQLVESGGGLVQPGGSLRLSCAASGFTLDDYAIGWFRQAPGKEREGVSSIRDNDGSTYYADSVKGRFTISRDNAKNTVYLQMNSLRPEDTAVYYCAAVPAGRLRFGEQWYPLYEYDAWGQGTLVTVSS
- IC50 [1]: 12.6 nM
- IC50 [4]: 29.2 nM

B16: VHH 2F04 (VHH)
VHH: EVQLVESGGGLVQAGGSLRLSCAASGFAFDDHLIGWFRQAPGKEREAVSCISRSAGSTYYADSVKGRFTISSDNAKNTVYLQMNSLKADDTAVYYCAAGPAWGRPASPLPYEYDYWGQGTQVTVSS
notes: also called 002F04; not shown: C-terminal c-myc tag and His6 tag
- IC50 [3]: 57.4 nM

B17: VHH 3F02 (VHH)
VHH: EVQLVESGGGLVQVGDSLRLACAASGRTFSTYLMVGWFRQAPGKEREFAAGIWSSGDTAYADSVKGRFTISRDNAKNTVYLQMNSLKTEDTAVYYCAGSYDGNYYIPGFYKDWGQGTQVTVSS
notes: also called 003F02; not shown: C-terminal c-myc tag and His6 tag
- IC50 [3]: 32.7 nM

B18: VHH 12B03 (VHH)
VHH: EVQLVESGGGLVQSGGSLRLSCAASGFALDYYTIGWFRQAPGKEREGVSCISGGDTSTYYADSVKGRFTISRDNAKNTVYLQMNSLKPEDTAVYYCATDSAGVPAGPAAVYGSTCSRLEYDYWGQGAQVTVSS
notes: also called 012B03; not shown: C-terminal c-myc tag and His6 tag
- IC50 [3]: 6.7 nM

B19: VHH 21G10 (VHH)
VHH: EVQLVESGGGLVQAGGSLRLSCAASGFTLDDYAIGWFRQAPGKEREGVSCISSSDGSTTYADSVKGRFTVSSDNAKNTVYLQMNSLKPEDTAVYYCAAGLRGRYYRGTYSLVCAPYEYDFWGQGTQVTVSS
notes: also called 021G10; not shown: C-terminal c-myc tag and His6 tag
- IC50 [3]: 16.8 nM

B20: VHH 6H05 (VHH)
VHH: EVQLVESGGGLVQAGGSLRLSCAASGFTFDDYAIGWFRQAPGKEREGVSCISSSDGSTAYADSVKGRFTISSDNAKNTVYLQMNSLKPEDTAVYYCTAVPATRRTPQMVAANVCWLAEYEYDYWGQGTQVTVSS
notes: also called 006H05; not shown: C-terminal c-myc tag and His6 tag
- IC50 [3]: 7.7 nM

B21: VHH 16G09 (VHH)
VHH: EVQLVESGGGLVQAGGSLRLVCSASGIDFSINAMAWYRQAPGKQREWVAFMINDSSTDYTDSVKGRFTISRDSTKNILYLQMNNLNVEDTAVYYCNTAYEQHTYWGQGTQVTVSS
notes: also called 016G09; not shown: C-terminal c-myc tag and His6 tag
- IC50 [3]: 19.4 nM

B22: VHH 14H02 (VHH)
VHH: EVQLVESGGGLVQAGGSLRLSCAASGFTFDEYAIGWFRQAPGKEREGVSYISSSDGSTYYADSVKGRVTSSSDNAKNTVYLQMNSLKPEDTAVYYCAARPTLRVRLDNDRHHLLYEYEYDYWGQGTQVTVSS
notes: also called 014H02; not shown: C-terminal c-myc tag and His6 tag
- IC50 [3]: 143 nM

B23: VHH 10C06 (VHH)
VHH: EVQLVESGGGLVQAGGSLRLSCVASGFTFDDYAIGWFRQAPGKEREGVSCISSSDGSTYYADSVKGRFTISGDNAKNTVYLQMNSLKPEDTAVYYCAAGITPCSDYTQTYEYDVWGQGTQVTVSS
notes: also called 010C06; not shown: C-terminal c-myc tag and His6 tag
- IC50 [3]: 45.2 nM
